T1: Chymase, from human skin (human, UniProt P23946 22-247)
T1 construct: purified natural enzyme, bought
T1 sequence (looked up): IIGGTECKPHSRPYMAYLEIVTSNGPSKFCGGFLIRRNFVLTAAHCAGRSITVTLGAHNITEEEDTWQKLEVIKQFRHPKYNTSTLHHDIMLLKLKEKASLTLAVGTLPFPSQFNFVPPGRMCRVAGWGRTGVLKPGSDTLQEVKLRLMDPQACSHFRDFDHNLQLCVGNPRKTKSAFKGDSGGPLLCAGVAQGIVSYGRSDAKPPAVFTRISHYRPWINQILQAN


What was measured:
Assay in all cases: enzyme inhibition, pNA substrate
[1] = target: T2, Tryptase, from human lung (human, UniProt Q15661 31-275, limits assumed)
T2 construct: purified natural enzyme, bought

[2] = target: T3, Chymotrypsin, from human pancreas (human, UniProt P17538 19-263)
T3 construct: purified natural enzyme, bought

[3] = target: T1, Chymase, from human skin
[4] = target: T4, Coagulation Factor Xa, from uman plasma (human, UniProt P00742 41-179; P00742 235-488, limits assumed)
T4 construct: purified natural enzyme, bought; also called FXa

[5] = target: T5, Urokinase from human urine (human, UniProt P00749 21-431, limits assumed)
T5 construct: purified natural enzyme, bought

[6] = target: Thrombin, from Human Plasma, high activity (human, UniProt P00734 328-622)
[7] = target: T6, Trypsin, Iodination grade, from human pancreas (human, UniProt P07477 24-247)
T6 construct: purified natural enzyme, bought

T4 sequence (P00742 41-179 limits assumed, chain 1 of 2): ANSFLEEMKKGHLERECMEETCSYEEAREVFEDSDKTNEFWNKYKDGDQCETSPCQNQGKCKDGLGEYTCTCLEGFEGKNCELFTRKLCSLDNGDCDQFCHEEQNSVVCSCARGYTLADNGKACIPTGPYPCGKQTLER
T4 sequence (P00742 235-488 limits assumed, chain 2 of 2): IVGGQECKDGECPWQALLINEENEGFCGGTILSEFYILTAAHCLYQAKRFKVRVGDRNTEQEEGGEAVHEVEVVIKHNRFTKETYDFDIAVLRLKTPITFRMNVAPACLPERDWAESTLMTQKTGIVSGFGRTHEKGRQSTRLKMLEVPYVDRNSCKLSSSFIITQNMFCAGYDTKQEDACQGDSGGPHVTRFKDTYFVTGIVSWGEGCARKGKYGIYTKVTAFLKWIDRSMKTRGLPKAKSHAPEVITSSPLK
T3 sequence (P17538 19-263): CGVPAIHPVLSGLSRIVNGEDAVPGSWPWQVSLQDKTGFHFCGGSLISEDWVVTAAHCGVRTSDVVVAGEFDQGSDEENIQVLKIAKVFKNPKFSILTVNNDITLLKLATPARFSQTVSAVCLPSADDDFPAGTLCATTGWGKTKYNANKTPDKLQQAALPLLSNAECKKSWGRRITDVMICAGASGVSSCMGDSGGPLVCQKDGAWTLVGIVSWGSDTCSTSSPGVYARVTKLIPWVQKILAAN
T2 sequence (Q15661 31-275 limits assumed): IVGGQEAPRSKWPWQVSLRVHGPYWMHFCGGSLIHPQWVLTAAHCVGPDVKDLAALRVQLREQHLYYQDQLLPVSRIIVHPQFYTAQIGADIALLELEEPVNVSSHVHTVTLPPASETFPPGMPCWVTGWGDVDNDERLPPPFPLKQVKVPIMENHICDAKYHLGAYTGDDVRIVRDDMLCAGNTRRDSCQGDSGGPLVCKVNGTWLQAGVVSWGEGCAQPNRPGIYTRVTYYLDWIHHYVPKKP

% inhibition at 100 µM [1] [%]	% inhibition at 100 µM [2] [%]	% inhibition at 100 µM [3] [%]	% inhibition at 100 µM [4] [%]	% inhibition at 100 µM [5] [%]	% inhibition at 100 µM [6] [%]	% inhibition at 100 µM [7] [%]	Binder
0	76						XCTASIPPQCY (HELM PEPTIDE1{[Nle].C.T.A.S.I.P.P.Q.C.Y.[dP].P}$PEPTIDE1,PEPTIDE1,2:R3-10:R3|PEPTIDE1,PEPTIDE1,1:R1-13:R2$$$V2.0; SMILES CCCC[C@@H]1NC(=O)[C@@H]2CCCN2C(=O)[C@H]2CCCN2C(=O)[C@H](Cc2ccc(O)cc2)NC(=O)[C@@H]2CSSC[C@H](NC1=O)C(=O)N[C@@H]([C@@H](C)O)C(=O)N[C@@H](C)C(=O)N[C@@H](CO)C(=O)N[C@@H]([C@@H](C)CC)C(=O)N1CCC[C@H]1C(=O)N1CCC[C@H]1C(=O)N[C@@H](CCC(N)=O)C(=O)N2) [Example 179]
0	80.6	0	0				XCTASIPPQCX (HELM PEPTIDE1{[Nle].C.T.A.S.I.P.P.Q.C.[O=C([C@H](Cc1ccccc1Cl)N[*:1])[*:2]].[dP].P}$PEPTIDE1,PEPTIDE1,2:R3-10:R3|PEPTIDE1,PEPTIDE1,1:R1-13:R2$$$V2.0; SMILES CCCC[C@@H]1NC(=O)[C@@H]2CCCN2C(=O)[C@H]2CCCN2C(=O)[C@H](Cc2ccccc2Cl)NC(=O)[C@@H]2CSSC[C@H](NC1=O)C(=O)N[C@@H]([C@@H](C)O)C(=O)N[C@@H](C)C(=O)N[C@@H](CO)C(=O)N[C@@H]([C@@H](C)CC)C(=O)N1CCC[C@H]1C(=O)N1CCC[C@H]1C(=O)N[C@@H](CCC(N)=O)C(=O)N2) [Example 144]
0		0	11.3	10.3	0		XCTASIPPQCX (HELM PEPTIDE1{[Nle].C.T.A.S.I.P.P.Q.C.[O=C([C@H](Cc1ccc2ccccc2c1)N[*:1])[*:2]].[dP].P}$PEPTIDE1,PEPTIDE1,2:R3-10:R3|PEPTIDE1,PEPTIDE1,1:R1-13:R2$$$V2.0; SMILES CCCC[C@@H]1NC(=O)[C@@H]2CCCN2C(=O)[C@H]2CCCN2C(=O)[C@H](Cc2ccc3ccccc3c2)NC(=O)[C@@H]2CSSC[C@H](NC1=O)C(=O)N[C@@H]([C@@H](C)O)C(=O)N[C@@H](C)C(=O)N[C@@H](CO)C(=O)N[C@@H]([C@@H](C)CC)C(=O)N1CCC[C@H]1C(=O)N1CCC[C@H]1C(=O)N[C@@H](CCC(N)=O)C(=O)N2, also called Ex. 95) [Example 95]
			25.6		12.6	0	XCTASXPPQCY (HELM PEPTIDE1{[Nle].C.T.A.S.[CC(C)(C)C[C@H](N[*:1])C(=O)[*:2]].P.P.Q.C.Y.[dP].P}$PEPTIDE1,PEPTIDE1,2:R3-10:R3|PEPTIDE1,PEPTIDE1,1:R1-13:R2$$$V2.0; SMILES CCCC[C@@H]1NC(=O)[C@@H]2CCCN2C(=O)[C@H]2CCCN2C(=O)[C@H](Cc2ccc(O)cc2)NC(=O)[C@@H]2CSSC[C@H](NC1=O)C(=O)N[C@@H]([C@@H](C)O)C(=O)N[C@@H](C)C(=O)N[C@@H](CO)C(=O)N[C@@H](CC(C)(C)C)C(=O)N1CCC[C@H]1C(=O)N1CCC[C@H]1C(=O)N[C@@H](CCC(N)=O)C(=O)N2, also called Ex. 85) [Example 85]
0		0	0				XCTASIPPQCX (HELM PEPTIDE1{[Nle].C.T.A.S.I.P.P.Q.C.[O=C([C@H](Cc1ccccc1Cl)N[*:1])[*:2]].[dP].P}$PEPTIDE1,PEPTIDE1,2:R3-10:R3|PEPTIDE1,PEPTIDE1,1:R1-13:R2$$$V2.0; SMILES CCCC[C@@H]1NC(=O)[C@@H]2CCCN2C(=O)[C@H]2CCCN2C(=O)[C@H](Cc2ccccc2Cl)NC(=O)[C@@H]2CSSC[C@H](NC1=O)C(=O)N[C@@H]([C@@H](C)O)C(=O)N[C@@H](C)C(=O)N[C@@H](CO)C(=O)N[C@@H]([C@@H](C)CC)C(=O)N1CCC[C@H]1C(=O)N1CCC[C@H]1C(=O)N[C@@H](CCC(N)=O)C(=O)N2, also called Ex. 96) [Example 96]
0		0		11.9	11.6		XCTASIPPQCX (HELM PEPTIDE1{[Nle].C.T.A.S.I.P.P.Q.C.[Cha].[dP].P}$PEPTIDE1,PEPTIDE1,2:R3-10:R3|PEPTIDE1,PEPTIDE1,1:R1-13:R2$$$V2.0; SMILES CCCC[C@@H]1NC(=O)[C@@H]2CCCN2C(=O)[C@H]2CCCN2C(=O)[C@H](CC2CCCCC2)NC(=O)[C@@H]2CSSC[C@H](NC1=O)C(=O)N[C@@H]([C@@H](C)O)C(=O)N[C@@H](C)C(=O)N[C@@H](CO)C(=O)N[C@@H]([C@@H](C)CC)C(=O)N1CCC[C@H]1C(=O)N1CCC[C@H]1C(=O)N[C@@H](CCC(N)=O)C(=O)N2, also called Ex. 97) [Example 97]
		0	0				XCTASIPPQCY (HELM PEPTIDE1{[Nle].C.T.A.S.I.P.P.Q.C.Y.[dP].Q}$PEPTIDE1,PEPTIDE1,2:R3-10:R3|PEPTIDE1,PEPTIDE1,1:R1-13:R2$$$V2.0; SMILES CCCC[C@@H]1NC(=O)[C@H](CCC(N)=O)NC(=O)[C@H]2CCCN2C(=O)[C@H](Cc2ccc(O)cc2)NC(=O)[C@@H]2CSSC[C@H](NC1=O)C(=O)N[C@@H]([C@@H](C)O)C(=O)N[C@@H](C)C(=O)N[C@@H](CO)C(=O)N[C@@H]([C@@H](C)CC)C(=O)N1CCC[C@H]1C(=O)N1CCC[C@H]1C(=O)N[C@@H](CCC(N)=O)C(=O)N2, also called Ex. 123) [Example 123]
			0		0	28.3	XCTASIPPQCY (HELM PEPTIDE1{[Nle].C.T.A.S.I.P.P.Q.C.Y.[dP].V}$PEPTIDE1,PEPTIDE1,2:R3-10:R3|PEPTIDE1,PEPTIDE1,1:R1-13:R2$$$V2.0; SMILES CCCC[C@@H]1NC(=O)[C@H](C(C)C)NC(=O)[C@H]2CCCN2C(=O)[C@H](Cc2ccc(O)cc2)NC(=O)[C@@H]2CSSC[C@H](NC1=O)C(=O)N[C@@H]([C@@H](C)O)C(=O)N[C@@H](C)C(=O)N[C@@H](CO)C(=O)N[C@@H]([C@@H](C)CC)C(=O)N1CCC[C@H]1C(=O)N1CCC[C@H]1C(=O)N[C@@H](CCC(N)=O)C(=O)N2) [Example 125]
	68.7	0			0		XCTASIPPQCF (HELM PEPTIDE1{[Nle].C.T.A.S.I.P.P.Q.C.F.[dP].P}$PEPTIDE1,PEPTIDE1,2:R3-10:R3|PEPTIDE1,PEPTIDE1,1:R1-13:R2$$$V2.0; SMILES CCCC[C@@H]1NC(=O)[C@@H]2CCCN2C(=O)[C@H]2CCCN2C(=O)[C@H](Cc2ccccc2)NC(=O)[C@@H]2CSSC[C@H](NC1=O)C(=O)N[C@@H]([C@@H](C)O)C(=O)N[C@@H](C)C(=O)N[C@@H](CO)C(=O)N[C@@H]([C@@H](C)CC)C(=O)N1CCC[C@H]1C(=O)N1CCC[C@H]1C(=O)N[C@@H](CCC(N)=O)C(=O)N2, also called Ex. 137) [Example 137]
	72.9				0	12.8	XCTASIPPQCY (HELM PEPTIDE1{[Nle].C.T.A.S.I.P.P.Q.C.Y.[dP].D}$PEPTIDE1,PEPTIDE1,2:R3-10:R3|PEPTIDE1,PEPTIDE1,1:R1-13:R2$$$V2.0; SMILES CCCC[C@@H]1NC(=O)[C@H](CC(=O)O)NC(=O)[C@H]2CCCN2C(=O)[C@H](Cc2ccc(O)cc2)NC(=O)[C@@H]2CSSC[C@H](NC1=O)C(=O)N[C@@H]([C@@H](C)O)C(=O)N[C@@H](C)C(=O)N[C@@H](CO)C(=O)N[C@@H]([C@@H](C)CC)C(=O)N1CCC[C@H]1C(=O)N1CCC[C@H]1C(=O)N[C@@H](CCC(N)=O)C(=O)N2, also called Ex. 168) [Example 168]
0		0	0			0	XCTASIPPQCY (HELM PEPTIDE1{[CCCCCCCC[C@H](N[*:1])C(=O)[*:2]].C.T.A.S.I.P.P.Q.C.Y.[dP].P}$PEPTIDE1,PEPTIDE1,2:R3-10:R3|PEPTIDE1,PEPTIDE1,1:R1-13:R2$$$V2.0; SMILES CCCCCCCC[C@@H]1NC(=O)[C@@H]2CCCN2C(=O)[C@H]2CCCN2C(=O)[C@H](Cc2ccc(O)cc2)NC(=O)[C@@H]2CSSC[C@H](NC1=O)C(=O)N[C@@H]([C@@H](C)O)C(=O)N[C@@H](C)C(=O)N[C@@H](CO)C(=O)N[C@@H]([C@@H](C)CC)C(=O)N1CCC[C@H]1C(=O)N1CCC[C@H]1C(=O)N[C@@H](CCC(N)=O)C(=O)N2) [Example 102]

From patent publication US20140213531A1 (POLYPHOR, published 2014)
